Target: Gdown1 (in vitro, construct not stated) (UniProt P0CAP2)

Gdown1 (in vitro, construct not stated) (from UniProt P0CAP2-1 1-368) (natural protein), sequence (P0CAP2 whole entry): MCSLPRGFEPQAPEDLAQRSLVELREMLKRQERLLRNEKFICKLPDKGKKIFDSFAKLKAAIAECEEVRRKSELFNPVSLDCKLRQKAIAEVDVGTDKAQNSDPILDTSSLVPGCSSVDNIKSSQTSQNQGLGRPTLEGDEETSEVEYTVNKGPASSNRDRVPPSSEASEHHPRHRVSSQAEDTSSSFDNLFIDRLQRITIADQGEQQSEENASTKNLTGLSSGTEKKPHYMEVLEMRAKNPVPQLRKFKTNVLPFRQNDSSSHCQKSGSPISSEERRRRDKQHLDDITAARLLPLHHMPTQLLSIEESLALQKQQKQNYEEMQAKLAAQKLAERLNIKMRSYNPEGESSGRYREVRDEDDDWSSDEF

stoichiometry N: 2
Substance: Gdown1 (in vitro, construct not stated) (from UniProt P0CAP2-1 1-368) (natural protein)

From article PMC3259531
